According to paper PMC4978220:

Molecular target: full-length PbgA protein with a carboxyl-terminal 6XHis tag (S. Typhimurium)
Test: SEC-MALS

**Q.** For “full-length PbgA protein with a carboxyl-terminal 6XHis tag (natural protein)”, which stoichiometry N is on record?
**A.** 4
